From PMC12393466 (2025) come the findings set out here.

No end group written: not given here.

One experiment concerns the target T1, P01.1 peptide.
T1 chain: KKIVTILKKLVK
As to the kind of experiment: concentration-dependent circular dichroism (222 nm, 40% TFE). In general terms: Circular dichroism is the unequal absorption of left and right circularly polarised light.

The next experiment addresses T2, P01.3 peptide.
T2 chain: KKIVEILKKLVK
The description is as above.

The term Kd denotes a measure of binding affinity in units of concentration. Molecule KKIVTILKKLVK-NH2 [P01.1 peptide] yielded a Kd with P01.1 peptide of 769 µM.
Ac-KKIVEILKKLVK-NH2 [P01.3 peptide] showed a dissociation constant (Kd) with P01.3 peptide of 51.5 µM.
